Test results from patent US20200297842A1 (published 2020).

Columns and labels:
[1] = biological target: T1, human SIRPγ expressed on cells (human, UniProt Q9P1W8 29-387); assay: flow cytometry on naive human CD3 T cells expressing SIRPγ
T1 construct: Endogenous SIRPγ on Jurkat T-ALL cells and on human CD3+ T cells; also called SIRPγ expressing Jurkat cells; Human T Cells Expressing SIRPγ
Experimental: (§1) Human CD3 T cells, isolated from peripheral blood mononuclear cells (Astarte Biologics) were incubated in 96-well V-bottom plates at 2.5 \ 10⁵ cells/well for 1 h at 37° C., 5% CO₂ with serial dilutions of SIRP mAbs in binding buffer containing 1 mM EDTA (Sigma Aldrich), 1% FBS (Biowest) in PBS (Corning). The cells were then washed and stained for 45 min under the same conditions with donkey anti-mouse IgG fluorescein isothiocyanate (FITC)-linked secondary antibody (Jackson ImmunoResearch Laboratories). The cells were subsequently stained with anti-CD3 conjugated to 3-carboxy-6,8-difluoro-7-hydroxycoumarin (Pacific Blue) fluorophore (BioLegend) for 30 min on ice, washed and analyzed by flow cytometry (Attune, Life Technologies). Binding was assessed as the median FITC fluorescence intensity of CD3⁺ cells, subtracted from CD3⁺ cells stained with the secondary antibody only. All SIRP antibodies were generated in-house except for LSB2.20 (BioLegend). For activated T cells, prior to the binding assay CD3 T cells were activated for 72 h in a 96-well flat-bottom plate coated with 10 μg/ml anti-CD3 (clone UCHT1; BioLegend), at 1×10⁵ cells/well in the presence of 0.5 μg/ml anti-CD28 (clone CD28.2; BioLegend).

[2] = biological target: T1, human SIRPγ expressed on cells; assay: flow cytometry on naive human CD3 T cells expressing SIRPγ (second column)
Experimental: as §1

[3] = biological target: T1, human SIRPγ expressed on cells; assay: flow cytometry on activated human CD3 T cells expressing SIRPγ
Experimental: as §1

[4] = biological target: T2, human SIRPα expressed on cells (human, UniProt P78324 31-504); assay: flow cytometry on human monocyte-derived dendritic cells; apparent Kd
T2 construct: whole, on cells; Endogenous SIRPα of THP-1 cells and of donor-derived macrophages and dendritic cells; also called SIRPα expressing THP-1 cells; cell-expressed SIRPα on dendritic cells and/or macrophages
T2 sequence (P78324 31-504): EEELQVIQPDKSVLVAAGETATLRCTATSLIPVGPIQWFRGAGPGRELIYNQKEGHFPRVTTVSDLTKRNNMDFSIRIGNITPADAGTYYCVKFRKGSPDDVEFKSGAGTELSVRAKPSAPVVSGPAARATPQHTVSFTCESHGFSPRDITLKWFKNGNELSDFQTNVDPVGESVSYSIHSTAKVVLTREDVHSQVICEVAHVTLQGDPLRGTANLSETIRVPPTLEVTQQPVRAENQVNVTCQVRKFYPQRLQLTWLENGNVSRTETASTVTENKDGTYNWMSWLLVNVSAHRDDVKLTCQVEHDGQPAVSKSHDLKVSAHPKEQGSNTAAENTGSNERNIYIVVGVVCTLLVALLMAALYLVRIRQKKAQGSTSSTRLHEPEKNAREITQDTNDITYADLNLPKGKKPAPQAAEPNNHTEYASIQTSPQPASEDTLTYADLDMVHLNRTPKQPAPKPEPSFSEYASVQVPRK
Experimental: (§2) Human CD14⁺ monocytes, isolated from peripheral blood mononuclear cells (Astarte Biologics) were differentiated in vitro for seven days into macrophages or dendritic cells. For macrophage differentiation, monocytes were incubated in AIM-V media (Life Technologies) supplemented with 50 ng/ml M-CSF (Biolegend) for seven days. For dendritic cell differentiation, monocytes were incubated in AIM-V media (Life Technologies) in the presence of 10% human AB serum (Valley Biomedical), 200 ng/ml GM-CSF (Biolegend) and 50 ng/ml IL-4 (Biolegend). The cells were incubated for 1 h at 37° C., 5% CO₂ with serial dilutions of SIRP mAbs in binding buffer containing 1 mM EDTA (Sigma Aldrich) and 1% FBS (Biowest) in PBS (Corning). The cells were then washed and stained for 45 min under the same conditions with donkey anti-mouse IgG fluorescein isothiocyanate (FITC)-linked secondary antibody (Jackson ImmunoResearch Laboratories). The cells were subsequently stained with anti-CD14 or anti-CD11c conjugated to Alexa Fluor 647 fluorophore (Life Technologies and Biolegend, respectively) for 30 min on ice, washed and analyzed by flow cytometry (Attune, Life Technologies). Binding was assessed as the median FITC fluorescence intensity of CD14⁺ or CD11c⁺ cells, subtracted from cells stained with the secondary antibody only.

[5] = biological target: T2, human SIRPα expressed on cells; assay: flow cytometry on human monocyte-derived macrophages; apparent Kd
Experimental: as §2

[6] = biological target: T3, Fc tagged human SIRPγ (ACRO # SIG-H5253) (human, UniProt Q9P1W8 29-360); assay: ELISA, plate-coated Fc tagged human SIRPγ; apparent Kd
T3 construct: Bought protein; it includes the transmembrane and cytoplasmic part, which a soluble Fc fusion would not carry; also called Fc tagged human SIRP gamma; recombinant human SIRP gamma; not shown: Fc tag
T3 sequence (Q9P1W8 29-360 limits assumed): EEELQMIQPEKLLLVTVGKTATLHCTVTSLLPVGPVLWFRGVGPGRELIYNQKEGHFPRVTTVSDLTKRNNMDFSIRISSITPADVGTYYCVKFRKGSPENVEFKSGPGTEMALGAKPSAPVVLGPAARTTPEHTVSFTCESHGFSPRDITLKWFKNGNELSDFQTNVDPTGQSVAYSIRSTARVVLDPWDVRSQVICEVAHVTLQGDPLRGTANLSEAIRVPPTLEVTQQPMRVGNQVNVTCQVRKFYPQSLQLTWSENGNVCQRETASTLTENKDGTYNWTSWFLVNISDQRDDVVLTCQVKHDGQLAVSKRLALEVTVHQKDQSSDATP
Experimental: The binding of anti-SIRP antibodies of the present disclosure to SIRP gamma (SIRPγ) was determined by ELISA using an Fc tagged human SIRPγ. Binding by soluble anti-SIRP antibodies was measured in vitro.
Fc tagged human SIRPγ (ACRO # SIG-H5253) is adsorbed to high-binding microtiter plates at a concentration of 1 μg/ml in phosphate buffered saline (PBS) overnight at 4° C. The coating solution is removed, the wells are washed and then blocked with 75% casein in PBS containing 0.5% Tween 20 (PBST) for 60 minutes at room temperature while shaking. Blocking solution is removed, the wells are washed and incubated for 60 minutes at room temperature while shaking with anti-SIRP mAbs diluted in PBST at a starting concentration of 30 μg/ml and reducing the concentration in 3-fold serial dilutions. Wells are washed three times with PBST and incubated for 60 minutes at room temperature while shaking with an HRP labeled donkey anti-mouse or anti-human secondary antibody (Jackson ImmonResearch Laboratories) diluted 1:10,000 in PBST. The wells are washed and then incubated with peroxidase substrate and the absorbance at 450 nm determined. The apparent affinities were calculated using a non-linear fit model (GraphPad Prism).

[7] = biological target: HIS tagged human SIRPα (ACRO # SIG-H5225) (human) (UniProt P78324); assay: blocking ELISA: mAb on plate-coated HIS tagged human SIRPα, then Fc tagged human CD47
HIS tagged human SIRPα (ACRO # SIG-H5225) (human), sequence (P78324 31-370): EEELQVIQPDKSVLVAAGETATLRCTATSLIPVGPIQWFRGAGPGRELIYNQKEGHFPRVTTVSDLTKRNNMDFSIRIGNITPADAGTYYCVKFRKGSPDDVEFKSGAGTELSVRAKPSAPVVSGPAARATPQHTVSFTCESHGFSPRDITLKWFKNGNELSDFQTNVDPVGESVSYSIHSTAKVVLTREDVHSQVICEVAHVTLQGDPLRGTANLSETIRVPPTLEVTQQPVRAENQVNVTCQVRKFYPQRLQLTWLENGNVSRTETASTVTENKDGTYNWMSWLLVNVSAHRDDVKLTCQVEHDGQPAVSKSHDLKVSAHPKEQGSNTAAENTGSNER

[8] = biological target: T4, Fc tagged human SIRPα (ACRO # SIG-H5251, genotype variant 1) (human, UniProt P78324 31-370, limits assumed); assay: ELISA, plate-coated Fc tagged human SIRPα; apparent Kd
T4 construct: Bought protein; also called Fc tagged human SIRP alpha; recombinant human SIRPα; not shown: Fc tag
T4 sequence (P78324 31-370 limits assumed, change not shown, form in doubt): as the sequence (P78324 31-370) above
Experimental: The binding of anti-SIRP monoclonal antibodies (mAbs) of the present disclosure to SIRP alpha (SIRPα) was determined by solid phase ELISA using an Fc tagged human SIRP alpha. Binding by soluble anti-SIRP antibodies was measured in vitro.
Fc tagged human SIRPα (ACRO # SIG-H5251, genotype variant 1) is adsorbed to high-binding microtiter plates at a concentration of 1 μg/ml diluted in phosphate buffered saline (PBS) overnight at 4° C. The coating solution is removed, the wells are washed and then blocked with 75% casein in PBS containing 0.5% Tween 20 (PBST) for 60 minutes at room temperature while shaking. Blocking solution is removed, the wells are washed and incubated for 60 minutes at room temperature while shaking with either murine or human anti-SIRP mAbs diluted in PBST at a starting concentration of 30 μg/ml and reducing the concentration in 3-fold serial dilutions. Wells are washed three times with PBST and incubated for 60 minutes at room temperature while shaking with an HRP-labeled donkey anti-mouse or anti-human secondary antibody (Jackson ImmunoResearch Laboratories) diluted 1:10,000 in PBST. The wells are washed and then incubated with peroxidase substrate and the absorbance at 450 nm measured. The apparent affinities were calculated using a non-linear fit model (GraphPad Prism).

[9] = biological target: T3, Fc tagged human SIRPγ (ACRO # SIG-H5253); assay: blocking ELISA: mAb with human SIRPγ (ACRO # SIG-H5253) on plate-coated HIS tagged human CD47
Experimental: HIS tagged human CD47 (ACRO # CD7-H5227) is adsorbed to high-binding microtiter plates at a concentration of 2 μg/ml diluted in PBS overnight at 4° C. The coating solution is removed, the wells are washed and then blocked with 75% casein in PBS containing 0.5% Tween 20 (PBST) for 60 minutes at room temperature while shaking. Blocking solution is removed, the wells are washed and incubated for 60 minutes at room temperature while shaking with anti-SIRP mAbs diluted in PBST at a starting concentration of 30 μg/ml and reducing the concentration in 3 fold serial dilutions and 0.5 μg/ml of human SIRPγ (ACRO # SIG-H5253). Wells are washed three times with PBST and incubated for 60 minutes at room temperature while shaking with an HRP labeled donkey anti-mouse or anti-human secondary antibody (Jackson ImmunoResearch Laboratories) diluted 1:20,000 in PBST. The wells are washed and then incubated with peroxidase substrate and the absorbance at 450 nm determined. The IC₅₀ was calculated using a non-linear fit model (GraphPad Prism).

T1 sequence (Q9P1W8 29-387): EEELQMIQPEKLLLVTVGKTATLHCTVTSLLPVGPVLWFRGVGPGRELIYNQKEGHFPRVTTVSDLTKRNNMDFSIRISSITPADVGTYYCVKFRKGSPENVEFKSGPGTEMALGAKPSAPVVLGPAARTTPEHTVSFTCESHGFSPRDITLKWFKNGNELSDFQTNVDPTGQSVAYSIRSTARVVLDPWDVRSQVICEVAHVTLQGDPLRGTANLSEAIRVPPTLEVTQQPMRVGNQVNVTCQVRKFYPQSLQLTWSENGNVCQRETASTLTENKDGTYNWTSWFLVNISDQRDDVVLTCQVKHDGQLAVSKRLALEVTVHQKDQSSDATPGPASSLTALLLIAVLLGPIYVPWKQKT

Molecule	Kd [1]	Kd [2]	Kd [3]	Kd [4]	Kd [5]	Kd [6]	IC50 [7]	Kd [8]	IC50 [9]
LSB2.20 (antibody)	0.75 nM	1.26 nM	0.95 nM						
OSE-18D5 (antibody, from another filing, V domains shown) VH: QVQLQQPGAELVRPGSSVKLSCKASGYTFTSYWVHWVKQRPIQGLEWIGNIDPSDSDTHYNQKFKDKASLTVDKSSSTAYMQLSSLTFEDSAVYYCVRGGTGTMAWFAYWGQGTLVTVSA VL: DVVMTQTPLSLPVSLGDQASISCRSSQSLVHSYGNTYLYWYLQKPGQSPKLLIYRVSNRFSGVPDRFSGSGSGTDFTLKISRVEAEDLGVYFCFQGTHVPYTFGSGTKLEIK	8.41 nM			0.0412 nM	0.0373 nM				
SIRP2 (antibody, mouse IgG1, kappa, V domains shown, Hybridoma-derived mouse mAb) VH: EVKLVESGGGLVQPGGSLKLSCAASGFSFSGCTMSWIRQTPERRLEWVAYISNGGDITYYPDTVKGRFTISRDNAKNSLYLQMSSLKSEDTAMYYCARLDGYYYAMDFWGQGTSVTVSS VL: DILLTQSPAILSVSPGERVSFSCRASQSIGTSIHWYQQRTNGSPRLLIKYGSESISGIPSRFSGSGSGTDFTLSINSVESEDIADYYCQQSNTWPLTFGDGTKLELKR						0.734 nM	3 nM	0.182 nM	3.5 nM
SIRP3 (antibody, mouse IgG1, kappa, V domains shown, Hybridoma-derived mouse mAb) VH: EVQLQQSGPEVVKPGASVKMSCKASGYTFTSYVMHWVKQKPGQGLEWIGYINPYNDGPKYNEKFKGKATLTSDKSSSTAYMELSSLTSEDSAVYFCARWDYFNSASGFAFWGQGTLVTVSA VL: EIVLTQSPTTMAASPGEKITIICSASSIIGSDFLHWYQQRPGFSPKFLIYRTSILASGVPTRFTGSGSGTSYSLTIGTMEAEDVATYYCQQGSGLPLTFGSGTKLEMKR	0.0807 nM			0.00347 nM		0.17 nM	2.7 nM	0.289 nM	0.96 nM
SIRP4 (antibody, V domains shown, detected with anti-mouse secondary antibody in the cell assays) VH: EVQLQQSGPDLVKPGASVKISCKASGYSFTDYFLNWVKQSHGKSLEWIGRINPYNGDSFINQNFRDKATLTVDKSSTTAHMDLLSLTSEDSAIYYCGRGGYDGYFIAYFDYWGQGSLVTVSA VL: DIKLTQSQSSMYSSLGQRVTITCKASQDINSHLSWFQEKPGKSPKTLIYRANRLADGVPSRFSGSGSGQDYFLTISSLEYEDVGIYYCLQYDEFPYTFGGGTKLEIK				0.05 nM	0.0207 nM	0.274 nM	0.71 nM	0.161 nM	0.44 nM
SIRP7 (antibody, V domains shown) VH: EVQLQQSGPELVKPGASVKMSCRASGYTFSTYVMHWIKHRPGQGLEWIGYINPNNDGPNYNEKFKGKATLTSDISSSTAYMELSSLTSEDSAVYFCSRWDSYNSAAGFAYWGHGTLVTVSA VL: EIVLTQSPTTMAASPGEKITIICSASSSISSNFLHWYQQKPGFSPRFLIYRTSILASGVPTRFSGSGSGTSYSLTIDTMEAEDVATYYCQQGSGLPLTFGSGTKLEIK	0.0839 nM					0.099 nM	1.1 nM	0.197 nM	0.63 nM
SIRP5 (antibody, V domains shown) VH: QVQLQQSAAELARPGASVKMSCKASGYTFTSYTMHWVKQRPGQGLEWIGYINPTIGYTEYNQKFKDKTTLTADKSSSTAYMQLSSLTSEDSAVYYCVRLVITSVLGRAMDYWGQGTSVTVSS VL: QIVLTQSPALMSASPGEKVTMTCSASSSVSYMYWFQQKPRSSPKPWIYLTSNLASGVPARFSGSGSGTSYSLTISSMEAEDAATYYCQQWSGNPFTFGSGTKLEIK				0.77 nM		0.126 nM		0.065 nM	0.163 nM
KWAR-23 (antibody, V domains shown) VH: EVQLQQSGAELVKPGASVKLSCTASGFNIKDYYIHWVQQRTEQGLEWIGRIDPEDGETKYAPKFQDKATITADTSSNTAYLHLSSLTSEDTAVYYCARWGAYWGQGTLVTVSS VL: QIVLTQSPAIMSASPGEKVTLTCSASSSVSSSYLYWYQQKPGSSPKLWIYSTSNLASGVPARFSGSGSGTSYSLTISSMEAEDAASYFCHQWSSYPRTFGAGTKLELK	0.00404 nM	0.00159 nM	0.00622 nM	0.0234 nM					
